Measurements reported in patent US20160185859A1 (Pfizer, published 2016).
Residue numbers refer to the chain shown, from its start. Numbers in names are those of the source. Read-outs that look alike come from different tables or passages of the source. Blank lines part the entries; values can stand above or below the molecule they belong to.

Legend:
[1] = target: human 5T4 antigen expressed on cells (PC14PE6 cells; MDAMB435/5T4 cells) (human) (UniProt Q13641); assay: FACS of PC14PE6 cells; control
human 5T4 antigen [2] = target: T1, human 5T4 antigen (human, UniProt Q13641 32-355, limits assumed); assay: BIACORE; human 5T4 chip saturated with first antibody H8 (competitor)
T1 sequence: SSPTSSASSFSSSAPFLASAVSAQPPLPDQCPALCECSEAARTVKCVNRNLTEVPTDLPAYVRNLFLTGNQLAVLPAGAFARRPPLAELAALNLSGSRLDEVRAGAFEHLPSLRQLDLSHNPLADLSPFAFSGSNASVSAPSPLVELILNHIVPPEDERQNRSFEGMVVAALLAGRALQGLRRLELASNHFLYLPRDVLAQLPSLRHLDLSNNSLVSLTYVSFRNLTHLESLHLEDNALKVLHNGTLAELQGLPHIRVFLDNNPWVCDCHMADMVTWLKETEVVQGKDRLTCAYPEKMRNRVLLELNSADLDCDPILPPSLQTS
Description: Epitope mapping of the H8, A1, A2, and A3 antibodies was also performed using BIACORE® using a CM5 chip with bound human 5T4 antigen. The chip was saturated with H8, A1, A2, or A3 antibody, and a first response was measured. The chip was then saturated with a second antibody from among the H8, A1, A2, and A3 antibodies, and a second response was measured. For multiple experiments, the chip was regenerated by dissociation of the bound antibodies in 10 mM glycine, pH 1.5, followed by a buffer wash. The percentages shown are the response units measured upon binding by a second antibody directly to the CM5 chip divided by the response units measured upon binding of the second antibody to a CM5 chip saturated with a first antibody.

[3] = target: T2, human 5T4 antigen expressed on cells (PC14PE6 cells; MDAMB435/5T4 cells) (human, UniProt Q13641 32-420); assay: FACS of PC14PE6 cells
T2 construct: PC14PE6 are human non-small cell lung cancer cells; also called 5T4-expressing PC14PE6 cells
T2 sequence: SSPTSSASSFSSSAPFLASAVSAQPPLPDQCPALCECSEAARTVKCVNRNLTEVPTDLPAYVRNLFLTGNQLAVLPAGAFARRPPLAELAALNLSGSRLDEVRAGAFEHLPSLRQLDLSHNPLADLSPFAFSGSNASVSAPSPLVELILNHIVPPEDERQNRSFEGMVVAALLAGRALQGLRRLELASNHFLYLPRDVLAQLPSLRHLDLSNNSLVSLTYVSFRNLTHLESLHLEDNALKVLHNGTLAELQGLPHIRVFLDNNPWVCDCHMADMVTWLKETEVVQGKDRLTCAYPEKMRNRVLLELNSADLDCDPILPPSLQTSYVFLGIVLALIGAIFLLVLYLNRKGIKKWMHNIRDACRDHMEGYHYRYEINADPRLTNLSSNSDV

human 5T4 antigen [4] = target: T1, human 5T4 antigen; assay: BIACORE (SPR); human 5T4 antigen immobilized on CM5 chip
Description: (§1) To assess the binding specificity and affinity of the A1, A2, and A3 antibodies, BIACORE® analysis was performed using human 5T4 antigen immobilized on a CM5 chip. BIACORE® technology utilizes changes in the refractive index at the surface layer upon binding of the antibody to the 5T4 antigen immobilized on the layer. Binding is detected by surface plasmon resonance (SPR) of laser light refracting from the surface. Analysis of the signal kinetics on rate and off rate allows discrimination between non-specific and specific interactions. The H8 anti-5T4 antibody was used as a control. H8 is a hybridoma-generated monoclonal mouse IgG1 antibody described in PCT International Publication No. WO 98/55607 and in Forsberg et al. (1997) J. Biol. Chem. 272(19):[…].

human 5T4 antigen [5] = target: T1, human 5T4 antigen; assay: ELISA; inhibition of biotinylated chimeric A1 antibody binding to human 5T4
human 5T4 antigen [6] = target: T1, human 5T4 antigen; assay: BIACORE (SPR); human 5T4 antigen immobilized on CM5 chip; remark: listed apart in the source
Description: as §1
To assess the binding specificity and affinity of the chimeric and humanized H8, A1, A2, and A3 antibodies, BIACORE® analysis was performed using human 5T4 antigen immobilized on a CM5 chip. See Example 2.

human 5T4 antigen [7] = target: T1, human 5T4 antigen; assay: BIACORE; human 5T4 chip saturated with first antibody humanized H8 (competitor); 150 s after injection of second antibody
human 5T4 antigen [8] = target: T1, human 5T4 antigen; assay: BIACORE; human 5T4 chip saturated with first antibody humanized H8 (competitor); 75 s after injection of second antibody
human 5T4 antigen [9] = target: T1, human 5T4 antigen; assay: BIACORE; human 5T4 chip saturated with first antibody humanized H8 (competitor); 37.5 s after injection of second antibody
human 5T4 ectodomain Fc = target: T3, human 5T4 ectodomain Fc (human, UniProt Q13641 32-355); assay: ELISA; 5T4 ectodomain/Fc fusion protein from transiently transfected COS-1 cells; given as ED50
T3 construct: also called human 5T4 ectodomain Fc fusion protein; Human 5T4 Ectodomain/Fc Fusion; not shown: Fc constant regions from human IgG1
T3 sequence: T1 sequence
Description: (§2) To assay binding of anti-5T4 antibodies, 5T4 ectodomain/Fc fusion proteins were transiently transfected into COS-1 cells, and ELISA assays were performed. Non-relevant human IgG4 and IgG1 antibodies were used as controls.

[10] = target: chimpanzee 5T4 ectodomain Fc (chimpanzee; human, UniProt P01857 99-330 = IgG part); assay: as above
Description: as §2

[11] = target: T4, cynomologous monkey 5T4 ectodomain Fc (cynomologous monkey; human, UniProt Q4R8Y9 32-355); assay: as above
T4 construct: not shown: Fc constant regions from human IgG1
T4 chain: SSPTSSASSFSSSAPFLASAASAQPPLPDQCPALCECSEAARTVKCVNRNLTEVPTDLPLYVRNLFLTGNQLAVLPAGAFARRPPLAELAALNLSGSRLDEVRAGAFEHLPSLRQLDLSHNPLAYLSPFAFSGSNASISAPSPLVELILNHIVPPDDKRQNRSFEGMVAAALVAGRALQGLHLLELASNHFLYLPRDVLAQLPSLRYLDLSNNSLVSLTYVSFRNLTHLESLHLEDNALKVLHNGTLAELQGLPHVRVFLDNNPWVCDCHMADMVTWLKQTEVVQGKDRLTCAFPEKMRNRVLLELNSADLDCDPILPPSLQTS
Description: as §2

human 5T4 antigen [12] = target: T1, human 5T4 antigen; assay: BIACORE; human 5T4 chip saturated with first antibody humanized H8 (competitor); 19 s after injection of second antibody
human 5T4 antigen [13] = target: T1, human 5T4 antigen; assay: BIACORE; human 5T4 chip saturated with first antibody humanized H8 (competitor); 300 s after injection of second antibody
human 5T4 antigen [14] = target: T1, human 5T4 antigen; assay: BIACORE; human 5T4 chip saturated with first antibody humanized H8 (competitor); 600 s after injection of second antibody

Molecule: Control (secondary Ab) (antibody)
Mean Cellular Flouresence [1]: 4

B1: murine anti-5T4 antibody A2 (antibody, V domains shown)
VH: QVQLQQSRPELVKPGASVKMSCKASGYTFTDYVISWVKQRTGQGLEWIGEIYPGSNSIYYNEKFKGRATLTADKSSSTAYMQLSSLTSEDSAVYFCAMGGNYGFDYWGQGTTLTVSS
VL: QIVLTQSPAIMSASLGERVTLTCTASSSVNSNYLHWYQQKPGSSPKLWIYSTSNLASGVPARFSGSGSGTSYSLTISSMEAEDAATYYCHQYHRSPLTFGAGTKLELK
notes: also called muA2
percentage response of second antibody following saturation with first antibody (human 5T4 antigen [2]): 99% | Mean Cellular Flouresence [3]: 7 | Ka (human 5T4 antigen [4]): 6.5e+07 M⁻¹ | Kd (human 5T4 antigen [4]): 15 nM | koff (human 5T4 antigen [4]): 0.00087 s⁻¹ | kon (human 5T4 antigen [4]): 56000 M⁻¹ s⁻¹

B2: huA1 VH v2.0 + huA1 VL v1.1 (antibody, V domains shown)
VH: EVQLVESGGGLVQPGGSLRLSCAASGYTFTNFGMNWVRQAPGKGLEWVAWINTNTGEPRYAEEFKGRFTISRDNAKNSLYLQMNSLRAEDTAVYYCARDWDGAYFFDYWGQGTLVTVSS
VL: DIVMTQSPDSLAVSLGERATINCKASQSVSNDVAWYQQKPGQPPKLLIYFATNRYTGVPDRFSGSGYGTDFTLTISSLQAEDVAVYYCQQDYSSPWTFGQGTKVEIK
notes: also called humanized A1 VH version 2.0 + humanized A1 VL version 1.1
IC50 (human 5T4 antigen [5]): 28 nM

B4: huA1 VH v2.0 + huA1 VL v2.4 (antibody, V domains shown)
VH: B2 VH
VL: DIQMTQSPSSLSASVGDRVTITCKASQSVSNDVAWYQQKPGKAPKLLIYFATNRYTGVPSRFSGSGYGTDFTLTISSLQPEDFATYYCQQDYSSPWTFGQGTKVEIK
IC50 (human 5T4 antigen [5]): 16 nM

B5: murine anti-5T4 antibody A1 (antibody, V domains shown)
VH: QIQLVQSGPELKKPGETVKISCKASGYTFTNFGMNWVKQGPGEGLKWMGWINTNTGEPRYAEEFKGRCAFSLETTASTAYLQINNLKNEDTATYFCARDWDGAYFFDYWGQGTTLTVSS
VL: SIVMTQTPKFLLVSAGDRVTITCKASQSVSNDVAWYQQKPGQSPKLLINFATNRYTGVPNRFTGSGYGTDFTFTISTVQAEDLALYFCQQDYSSPWTFGGGTKLEIK
percentage response of second antibody following saturation with first antibody (human 5T4 antigen [2]): 109% | Mean Cellular Flouresence [3]: 18 | Ka (human 5T4 antigen [4]): 1.6e+09 M⁻¹ | Kd (human 5T4 antigen [4]): 0.64 nM | koff (human 5T4 antigen [4]): 0.00013 s⁻¹ | kon (human 5T4 antigen [4]): 200000 M⁻¹ s⁻¹

B8: murine anti-5T4 antibody A3 (antibody, V domains shown)
VH: EVQLVESGGGLVQPKGSLKLSCAASGFTFNTYAMNWVRQAPGKGLEWVARIRSKSNNYATYYADSVKDRFTISRDDSQSMLYLQMNNLKTEDTAMYCCVRQWDYDVRAMNYWGQGTSVTVSS
VL: DIVMTQSHIFMSTSVGDRVSITCKASQDVDTAVAWYQQKPGQSPKLLIYWASTRLTGVPDRFTGSGSGTDFTLTISNVQSEDLADYFCQQYSSYPYTFGGGTKLEIK
notes: also called muA3
percentage response of second antibody following saturation with first antibody (human 5T4 antigen [2]): 73% | Mean Cellular Flouresence [3]: 27 | Ka (human 5T4 antigen [4]): 4.6e+08 M⁻¹ | Kd (human 5T4 antigen [4]): 2.2 nM | koff (human 5T4 antigen [4]): 5.2e-05 s⁻¹ | kon (human 5T4 antigen [4]): 24000 M⁻¹ s⁻¹

Now from value to molecule:

Mean Cellular Flouresence [1]: 4
Molecule: Control (murine IgG) (antibody)

IC50 (human 5T4 antigen [5]): 27 nM
B3: huA1 VH v2.0 + huA1 VL v3.1 (antibody, V domains shown)
VH: B2 VH
VL: EIVMTQSPATLSLSPGERATLSCKASQSVSNDVAWYQQKPGQAPRLLIYFATNRYTGIPARFSGSGYGTDFTLTISSLQPEDFAVYYCQQDYSSPWTFGQGTKVEIK

Ka (human 5T4 antigen [6]): 2.6e+09 M⁻¹ | Kd (human 5T4 antigen [6]): 0.38 nM | koff (human 5T4 antigen [6]): 6.3e-05 s⁻¹ | kon (human 5T4 antigen [6]): 170000 M⁻¹ s⁻¹
B6: chimeric A1 antibody bearing C67F mutation (antibody, V domains shown)
VH: B5 VH with C68F
VL: B5 VL
notes: also called Chimeric A1 + C67F; ChiA1+C67F

percentage of second antibody bound following saturation with first antibody (human 5T4 antigen [7]): 67.5% | percentage of second antibody bound following saturation with first antibody (human 5T4 antigen [8]): 58.4% | percentage of second antibody bound following saturation with first antibody (human 5T4 antigen [9]): 51.2% | EC50 (human 5T4 ectodomain Fc): 0.2 nM | EC50 [10]: 0.2 nM | EC50 [11]: 0.23 nM | percentage of second antibody bound following saturation with first antibody (human 5T4 antigen [12]): 46.2% | percentage of second antibody bound following saturation with first antibody (human 5T4 antigen [13]): 76.2% | Ka (human 5T4 antigen [6]): ~5.4e+09 M⁻¹ | Kd (human 5T4 antigen [6]): ≤ 0.18 nM | koff (human 5T4 antigen [6]): ≤ 1e-05 s⁻¹ | kon (human 5T4 antigen [6]): ~54000 M⁻¹ s⁻¹ | percentage of second antibody bound following saturation with first antibody (human 5T4 antigen [14]): 83.6%
B7: chimeric A3 antibody (antibody, human IgG4, V domains shown)
VH: B8 VH
VL: B8 VL
notes: also called ChiA3; ChiA3 γ4

Ka (human 5T4 antigen [6]): 1.7e+09 M⁻¹ | Kd (human 5T4 antigen [6]): 0.59 nM | koff (human 5T4 antigen [6]): 1.6e-05 s⁻¹ | kon (human 5T4 antigen [6]): 27000 M⁻¹ s⁻¹
B9: chimeric A3 antibody bearing C91Y mutation (antibody, V domains shown)
VH: B8 VH with C97Y
VL: B8 VL
notes: also called Chimeric A3 + C91Y; ChiA3+C91Y
